Substitutions are numbered along the chain they refer to.

The chains are these.
B1: Fab fragment of antibody 992 (Fab, V domains shown, not shown: small tags and cut ends)
VH: EVQLQQPGSELVRPGASVKLSCKASGYTFTSYWMHWVKQRPGQGLEWIGNIYPGSRSTNYDEKFKSKATLTVDTSSSTAYMQLSSLTSEDSAVYYCTRNGDYYVSSGDAMDYWGQGTSVTVS
VL: DIQMTQTTSSLSASLGDRVTISCRTSQDIGNYLNWYQQKPDGTVKLLIYYTSRLHSGVPSRFSGSGSGTDFSLTINNVEQEDVATYFCQHYNTVPPTFGGGTKLEIKR
B2: Fab fragment of antibody 1030 (Fab, V domains shown, not shown: small tags and cut ends)
VH: EVQLVESGGGLVKPGGSLKLSCAASGFTFSSYALSWVRQTPERRLEWVASISGVGSTYFPDSVKGRFTMSRDNARNILYLQMSSLRSEDTAMYYCARGSDGYFYAMDYWGQGTSVTVS
VL: DIVLTQSPASLAVSLGQRATISCRASKSVSTSGYSFMHWYQLKPGQPPKLLIYLASNLESGVPARFSGSGSGTDFTLNIHPVEEEDAATYYCQHSREFPLTFGGGTKLEIKR
B3: Fab fragment of antibody 1024 (Fab, V domains shown, not shown: small tags and cut ends)
VH: QVQLQQPGAELVEPGGSVKLSCKASGYTFTSHWMHWVKQRPGQGLEWIGEINPSSGRNNYNEKFKSKATLTVDKSSSTAYMQFSSLTSEDSAVYYCVRYYGYDEAMDYWGQGTSVTVS
VL: DIVMTQAAFSNPVTLGTSASISCRSSKSLLHSNGITYLYWYLQKPGQSPQLLIYQMSNLASGVPDRFSSSGSGTDFTLRISRVEAEDVGVYYCAQNLELPYTFGGGTKLEIKR
B4: antibody 1030 (antibody, human IgG1, kappa, V domains shown)
VH: EVQLVESGGGLVKPGGSLKLSCAASGFTFSSYALSWVRQTPERRLEWVASISGVGSTYFPDSVKGRFTMSRDNARNILYLQMSSLRSEDTAMYYCARGSDGYFYAMDYWGQGTSVTVSS
VL: B2 VL
notes: Chimeric mouse/human IgG1 kappa
B5: antibody 1024 (antibody, human IgG1, kappa, V domains shown)
VH: QVQLQQPGAELVEPGGSVKLSCKASGYTFTSHWMHWVKQRPGQGLEWIGEINPSSGRNNYNEKFKSKATLTVDKSSSTAYMQFSSLTSEDSAVYYCVRYYGYDEAMDYWGQGTSVTVSS
VL: B3 VL
notes: as for B4
B6: antibody 992 (antibody, human IgG1, kappa, V domains shown)
VH: EVQLQQPGSELVRPGASVKLSCKASGYTFTSYWMHWVKQRPGQGLEWIGNIYPGSRSTNYDEKFKSKATLTVDTSSSTAYMQLSSLTSEDSAVYYCTRNGDYYVSSGDAMDYWGQGTSVTVSS
VL: B1 VL
notes: Chimeric mouse variable / human IgG1 kappa; the light chain entry includes the human kappa constant region; the end of the range is counted on the printed entry
B7: antibody 1261 (antibody, human IgG1, kappa, V domains shown)
VH: EVQLVESGGGLVKPGGSLKLSCAVSGFTFSSYVMSWVRQTPEKRLEWVATITSGGRNIYYLDSVKGRFTISRDNAKNTLYLQMSSLRSEDTAMYYCARHEDYRYDGYYAMDYWGQGTSVTVSS
VL: QIVLTQSPAIMSASPGEKVTITCSASSSVSYMHWFQQKPGTSPKLWIYSTSNLASGVPARFSGSGSGTSYSLTISRMEAEDAATYYCQQRSSYPYTFGGGTKLELKR
notes: as for B4
B8: antibody 1347 (antibody, human IgG1, kappa, V domains shown)
VH: QVQLKESGPGLVAPSQSLSITCTVSGFSLTGHGVNWVRQPPGKGLEWLGMIWGDGSTDYNSTLKSRLSISKDNSKSQVFLKMNSLQTDDTARYYCARGYGYLYYFDYWGQGTTLTVSS
VL: ENVLTQSPAIMSASPGEKVTMTCRASSSVSSSYLHWYQQKSGASPKLWIYSTSNLASGVPARFSGSGSGTSYSLTVNSVETEDAATYYCHQYSGFPFTFGSGTKLELKR
notes: as for B4
B9: antibody 1260 (antibody, human IgG1, kappa, V domains shown)
VH: QVQLKESGPGLVAPSQSLSITCTVSGFSLTTYGVHWVRQPPGKGLEWLGVIWAGGSTNYNSALMSRLSIKKDNSKSQVFLKMNSLQTDDTAMYYCARAYGYNFDYWGQGTTLTVSS
VL: DIQMTQTTSSLSASLGDRVTISCSASQGITNYLNWYQQKPDGTVKLLIYYSSSLHSGVPSRFSGSGSGTDYSLTISNLEPEDIATYYCQQYSEIPYTFGGGTKLELKR
notes: as for B4
B10: antibody 1320 (antibody, human IgG1, kappa, V domains shown)
VH: QVQLQQPGAELVKPGASMKLSCKASGYTFTNYWMHWVKQRPGQGLEWIGEINPSNGRTNYNEKFKSKATLTVDKSSSTAYMQLSSLTSEDSGVYYCAKGGNYYDYDWDYWGQGTTLTVSS
VL: B9 VL with G28D, T30S, Y50H, S51T, S53T, E93K, I94L, Y96W, L106I
notes: as for B4
B11: antibody 1254 (antibody, human IgG1, kappa, V domains shown)
VH: EVQLVESGGGLVKPGGSLKLSCAASGFAYSTYDMSWVRQTPEKRLEWVAYISSGGDAAYYPDTVKGRFTISRDNAKNTLYLQMSSLKSEDTAMYYCARSRYGNYGDAMDYWGQGTSVTVSS
VL: DVVMTQTPLSLPVSLGDQASISCRSSQSLVHSNGNTYLHWYLQKPGQSPKLLLYKVSNRFSGVPDRFSGSGSGTDFTLKISRVESEDLGVYFCSQNTHVYTFGGGTKLEIKR
notes: Chimeric mouse/human IgG1 kappa; also called mAb 1254
B12: antibody 1284 (antibody, human IgG1, kappa, V domains shown)
VH: QVQLQQPGAELVKPGASVKLSCKASGYTFTSDWMHWMKQRPGQGLEWIGEINPSNGRSSYNEKFKSKATLTVDKSSSTAYMQLSSLTSEDSAVYYCARIGGIYVETYWGQGTLVTVSS
VL: DIVLTQSPASLAVSLGQRATISCRASQSVSTSTYSYMHWYQQKSGQPPKLLIKYASNLESGVPARFSGSGSGTDFTLNIHPVEEEDTATYYCQHSWEIPWTFGGGTKLEIKR
notes: as for B4

The first assay has as its target T1, human EGFR expressed on cells (human, UniProt P00533 25-1210).
T1 construct: whole, on cells; also called EGFR on A431-NS cells; full length Human EGFR on transfected CHO cells
As to the kind of experiment: cell ELISA on A431-NS cells (Fab ED50) against SPR KD. A general note: In an ELISA, binding on a coated surface is turned into a signal by an enzyme label.
In the case of B1, the “fold difference of the monovalent functional affinity on cells against the value tested with BIAcore” value was 15 fold.

The target of another assay is T2, EGFR-Fc (recombinant EGFR ECD-Fc chimera, R&D Systems 344-ER) (human, UniProt P00533 25-645).
T2 construct: Bought; also called immobilized Human EGFR ECD; not shown: Human IgG Fc
The experiment in a line: SPR (Biacore 2000): EGFR ECD-Fc immobilised on CM5, Fab injected. As for the experimental part:
To investigate possible differences in antigen presentation between EGFR ECD presented in soluble and immobilized form, a new affinity measurement on an immobilized chimeric EGFR receptor antigen termed EGFR-Fc (R&D Systems, 344-ER), consisting of Human EGFR ECD fused to Human IgG Fc was performed.
Background: In SPR one partner is held on a chip, and binding of the other changes the refractive index at the surface.
As to B2, the t1/2 stood at 57.5 min.
The same measure, in the same setting: the value for B3 was 2.3 min; that for B1 was 0.2 min.

Another assay deals with T2, EGFR-Fc (recombinant EGFR ECD-Fc …). As to the kind of experiment: SPR, Fab on immobilised EGFR ECD-Fc against IgG with soluble EGFR ECD.
B2: the “fold higher affinity against immobilized antigen as compared to soluble receptor” value turned out to be 10 fold.

For a further assay, the target named is T3, recombinant human EGFR extracellular domain with 6xHis (human, UniProt P00533 25-645).
T3 construct: In-house protein; also called 6xHis EGFR ECD; soluble human EGFR ECD; not shown: 6xHis tag
The experiment in a line: SPR; EGFR ECD saturated with mix N=6: 1261+1347+992+1024+1030+1361. The protocol: SPR analysis was performed on a Biacore 3000 machine containing four flow cells. A CM5 Biacore chip was conjugated with 10,000 Resonance units (Ru) polyclonal anti-His antibody to flow cells 1-4 according to the manufacturer's instructions. […] Immediately after antigen injection the maximal binding of the Anti-EGFR mAb without competition was established in each flow cell during a reference run. Briefly 5 μl antibody at a concentration of 40 μg/ml was injected over all flow cells with captured EGFR followed by stripping of the antibody/antigen complex with a low pH acid wash (10 sec. contact time with 10 mM Glycine-HCl, pH2). After the determination of Anti-EGFR antibody maximal binding to each flow cell, a competition run was performed during the same Biacore cycle. Flow cells were first saturated with EGFR ECD antigen followed by injection of different reference antibodies or Anti-EGFR antibodies into separate flow cells using the same antigen saturating conditions as outlined above. This step was immediately followed by a second injection of Anti-EGFR antibody over the flow cell saturated with EGFR antigen and competition antibody to minimize the dissociation of either antigen or blocking antibody. Then the antibody/antigen complexes were stripped off with a low pH acid wash (10 sec. contact time with 10 mM Glycine-HCl, pH 2) and the whole cycle beginning with the reference run was repeated with a new Anti-EGFR antibody. The degree of inhibition of tested Anti-EGFR antibodies were determined by comparing the Ru max value of the individual Anti-EGFR antibody before and after competition by introduction of report points recorded two seconds before and after injection of each sample.
Turning to B4, the “Inhibition Sample mAb” value was 87%.
For the molecule B5, the “Inhibition Sample mAb” value was determined as 113%.
Turning to B6, the “Inhibition Sample mAb” value is 116%.
The same measure, in the same setting: under B7 stands 95%; under B8, 80%.

For the next assay, the target named is T3, recombinant human EGFR extracellular …. The experiment in a line: SPR (BIAcore 2000): IgG captured by anti-human Fc, soluble EGFR ECD injected. As for the experimental part:
Kinetic analysis of the full length IgG antibodies of the invention was performed on a BIAcore 2000, employing an assay as described in (Canziani, Klakamp, et al. 2004, Anal. Biochem, 325:301-307) allowing measurement of monovalent affinities of whole IgG molecules against soluble antigen. […] The chip surface was regenerated in between cycles by stripping the captured antibody/antigen complexes with a 10 second injection of 100 mM H₃PO₄. […] The association rate constant (ka) and dissociation constant (kd) were evaluated globally from the generated sensograms with the BIA evaluation software 4.1 provided by the manufacturer.
Take B4: the t1/2 came to 31.1 min.
Same read-out and setting: under B9 stands 74.1 min.
In the case of B10, the t1/2 stood at 4.1 min.
As for B11, the t1/2 amounted to 11.3 min.
Regarding B5, the t1/2 is 2.4 min.
For the molecule B6, the t1/2 is 0.2 min.
In the case of B12, the t1/2 was determined as 78.1 min.
Turning to B7, the t1/2 came out at 3.6 min.
Same read-out and setting: the value for B8 was 22.9 min.

The next assay has as its target T4, Wild type full length EGFR purified from A431 cells (human, UniProt P00533 25-1210).
T4 construct: mature; purified from cells and coated on ELISA wells; also called purified full length EGFR; Sigma E3641
The experiment in a line: indirect ELISA, Fab on coated purified full length EGFR, anti-human Fab HRP.
The EC50 (read off the curve) is the concentration giving half of the maximal effect. Low readings indicate a more potent agent, high ones a less potent agent. Turning to B2, the “EC50 (read off the curve)” value is roughly 5 nM.

The target of the next assay is T4, Wild type full length EGFR purified …. The experiment in a line: ELISA: antibody titrated on coated full length EGFR, then biotinylated EGF (blocked ligand), streptavidin-HRP. The protocol:
The next morning wells were washed twice with PBS-T and blocked for one hour with 150 μl PBS-T-1% BSA at room temperature, followed by wash twice in PBS-T. Next 80 μl of serially diluted Anti-EGFR antibodies and control antibodies were added to wells and incubated 30 min at room temperature. […] Subsequently wells were washed five times with PBS-T, followed by incubation with 100 μl/well Streptavidin-HRP secondary reagent diluted 1:1000 in blocking buffer and incubation at room temperature for 30 min. Finally wells were washed five times with PBS-T and plates were developed by adding 100 μL/well TMB substrate and incubated for 60 min. After incubation the reaction was stopped by addition of 1 M H₂SO₄; 100 μl/well and plates were read at OD 450 nm.
In the case of B9, the “IC50 (read off the curve)” value was roughly 40 ng mAb/ml.
In the case of B10, the “IC50 (read off the curve)” value was roughly 20 ng mAb/ml.

The values above are taken from patent US20110229463A1 (SYMPHOGEN A S, published 2011).
